Measured values taken from article PMC6389858.

What was measured:
[1] = molecular target: T1, OxyR (Escherichia coli K12 BW25113?) (UniProt P0ACQ4); assay: EMSA; conditions: EMSA: 10 mM HEPES pH 7.3, 20 mM KCl, 1 mM MgCl2, 5% glycerol, poly dI-dC, NP-40, 25 C, 2 h; 6% DNA retardation gel
T1 sequence: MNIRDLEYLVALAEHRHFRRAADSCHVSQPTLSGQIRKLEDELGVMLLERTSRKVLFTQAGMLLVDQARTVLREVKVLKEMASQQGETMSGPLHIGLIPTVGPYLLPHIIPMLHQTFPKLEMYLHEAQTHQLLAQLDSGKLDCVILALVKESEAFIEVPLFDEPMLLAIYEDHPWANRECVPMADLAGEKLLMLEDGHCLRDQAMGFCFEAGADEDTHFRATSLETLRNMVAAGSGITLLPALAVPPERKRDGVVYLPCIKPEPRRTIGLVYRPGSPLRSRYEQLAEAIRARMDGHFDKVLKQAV

[2] = molecular target: T1, OxyR (Escherichia coli K12 BW25113?); assay: competition; conditions: EMSA: 10 mM HEPES pH 7.3, 20 mM KCl, 1 mM MgCl2, 5% glycerol, poly dI-dC, NP-40, 25 C, 2 h; 6% DNA retardation gel

## ACTGGCCTGATAAGCCTGTTTACCTCGGGGCGCAGGCGCATCTGCAAAACTTCTACCAGAGTTTCGGTTTTATCCCTGTGACGGAGGTCTATGAAGAAGATGGTATCCCACACATTGGGATGGCACGCGAGGTAATTCAGGCGTAATCAACAACCCTTGTCTATAGTTAGTGACAGGTTTTACGCAAATGGAGAACGAGA (double strand) [PelaB-S (elaB promoter probe with OxyR binding site 2)]
[1]
  binding: binds
[2]
  binding: binds
